From patent publication US20240294670A1 (University of Texas, published 2024)

Key:
[1] = biological target: T1, recombinant human CHI3L1 (human, UniProt P36222 22-383); assay: ELISA: human CHI3L1 coated on the plate, B cell culture supernatant 100 ul/well, A450
T1 construct: His-tagged recombinant protein (Sino Biological 11227-H08H, or in-house HEK293 protein with 6xHIS-tag and avi-tag); also called hCHI3L1; hChi3l1
Procedure: (§1) FIG. 7. The ELISA binding of the supernatant antibody to the human CHI3L1. (hCHI3L1), and mouse CHI3L1 (mCHI3L1). The CHI3L1 protein was coated on maxi-sorp 96-well plates, cell culture supernatant (100 ul/well) was used for binding on the antigen coated plate. Binding signals (A450 nm) are shown in Y-axis and CHI3L1 mAbs are shown on X-axis.
(§2) Binding affinity of anti-CHI3L1 monoclonal antibodies to the CHI3L1 protein using ELISA method. Binding of CHI3L1 by monoclonal antibodies was first screened by ELISA using supernatants collected from the B cell cultures and cross reactivity to mouse CHI3L1 protein was determined (FIG. 7).

[2] = biological target: T2, recombinant mouse CHI3L1 (mouse, UniProt Q61362 30-389, limits assumed); assay: ELISA: mouse CHI3L1 coated on the plate, B cell culture supernatant 100 ul/well, A450
T2 construct: His-tagged; also called mCHI3L1; mChi3l1
Procedure: as §1, §2

[3] = biological target: T2, recombinant mouse CHI3L1; assay: BLI (Octet), mAb on protein A sensor, CHI3L1 in solution, 1:1 fit
Procedure: FIG. 8. Kinetic binding sensorgrams collected on Octet instrument for determination of kon and koff rates for each CHI3L1 antibody.
Binding affinity of anti-CHI3L1 monoclonal antibodies determined using Bio-layer interferometry (BLI), a sensor-based Octet instrument. […] Following by kinetics buffer washing to baseline, the loaded biosensors were exposed to a series of recombinant CHI3L1 protein at 0.1-200 nM range and background subtraction was used to correct for any background from sensor drifting. All experiments were performed with shaking at 1,000 rpm. Background wavelength shifts were measured from reference biosensors that were loaded with antibody and followed with buffer without antigen. ForteBio's data analysis software was used to fit the data to a 1:1 binding model to extract an association rate and dissociation rate. The KD was calculated using the ratio of koff/kon and the estimated values of KD for CHI3L1 mAbs in Table C.

T2 sequence (Q61362 30-389 limits assumed): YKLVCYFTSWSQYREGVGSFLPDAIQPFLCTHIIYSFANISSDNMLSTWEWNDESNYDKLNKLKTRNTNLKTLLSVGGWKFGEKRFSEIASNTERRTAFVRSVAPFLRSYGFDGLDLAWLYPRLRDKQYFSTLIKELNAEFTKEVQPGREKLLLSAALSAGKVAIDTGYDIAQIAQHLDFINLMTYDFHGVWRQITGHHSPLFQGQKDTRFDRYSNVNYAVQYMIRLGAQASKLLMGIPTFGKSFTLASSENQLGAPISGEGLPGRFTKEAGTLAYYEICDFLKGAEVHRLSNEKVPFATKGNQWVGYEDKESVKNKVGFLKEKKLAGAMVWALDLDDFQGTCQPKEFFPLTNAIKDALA
T1 sequence (P36222 22-383 limits assumed): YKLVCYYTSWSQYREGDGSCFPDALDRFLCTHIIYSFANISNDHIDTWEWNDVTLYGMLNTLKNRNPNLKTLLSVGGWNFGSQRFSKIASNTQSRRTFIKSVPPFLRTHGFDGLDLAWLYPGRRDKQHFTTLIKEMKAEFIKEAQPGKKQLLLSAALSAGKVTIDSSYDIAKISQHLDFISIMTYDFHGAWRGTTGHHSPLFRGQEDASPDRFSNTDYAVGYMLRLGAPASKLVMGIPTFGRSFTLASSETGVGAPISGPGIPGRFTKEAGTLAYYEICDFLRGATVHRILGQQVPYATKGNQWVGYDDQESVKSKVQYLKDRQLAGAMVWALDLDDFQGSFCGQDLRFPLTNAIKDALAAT

B1: anti-CHI3L1 monoclonal antibody C15 (antibody, V domains shown)
VH: QSVKESGGGLVQPEGSLTLTCTASGFDFSSNAMCWVRQAPGKGPEWIACIYNGDASTYYASWAKGRSTISKTSSTTVTLQMTSLTAADTATYFCARCFNRFYRGDLWGPGTLVTVSS
VL: DPMLTQTPSSVSAAVGGTVSISCQSSQSVYDNDWLSWYQQKPGQPPKLLIYDASKLASGVPSRFKGSGSGTQFTLTISDVQCDAAATYYCAGDYINTIDNAFGGGTEVVVK
notes: Rabbit mAb
binding result [1]: binds
binding result [2]: binds

B2: anti-CHI3L1 monoclonal antibody C64 (antibody, V domains shown)
VH: QSVEESGGDLVKPGASLTLTCTASGFSFSNNYWICWIRQAPGKGLEWIACIYAGDTGTAYYANWAKGRFTISKTSSTTVTLQMTSLTAADTATYFCARDGDGVGNGGTFALWGPGTLVTVSS
VL: ALVMTQTPASVEAAVGGTVTIRCQASERIGNALAWYQQKPGQPPKLLIYQTSKLTSGVPSRFKGSGSGTEHTLTISDLECADAATYYCQSYYYTGSISYEFGGGTKVVVE
notes: Rabbit mAb from single B cells, expressed as full length IgG in HEK293
binding result [1]: no binding
Kd [3]: 0.254 nM
koff [3]: 2.71e-05 s⁻¹
kon [3]: 107000 M⁻¹ s⁻¹

B3: anti-CHI3L1 monoclonal antibody C61 (antibody, V domains shown)
VH: QEQLEESGGDLVKPEGSLTLTCTASGFSFSSSYWICWVRQAPGKGLEWIACIYAGGSGSTYYASWAKGRFTISKTSSTTVTLQMTSLTAADAATYFCARDGVSGSGWFFNLWGPGTLVTVSS
VL: DVVMTQTPASVSEPVGGTVTIKCQASQSISSYLTWYQQKPGQPPKLLIYKASTLASGVSSRFKGSGSGTEFTLTISDLECADAATYYCQSSYYGPSDVDFSPFGGGTEVEIK
notes: as for B2
binding result [1]: no binding
Kd [3]: 2.81 nM
koff [3]: 0.000201 s⁻¹
kon [3]: 71500 M⁻¹ s⁻¹

B4: anti-CHI3L1 monoclonal antibody C19 (antibody, V domains shown)
VH: QEQLVEYGGDLVQPEGSLTLTCTASGFTISSTFYMGWVRQAPGKGLEWIGDMHVGSATTTYYASWAKGRFTISKPSSTTVTLQMTSLTAADTATYFCARYVNSGYYMDSWGPGTLVTVSS
VL: AQVLTQTPASVEVAVGGTVTIKCQASQTISNLLAWYQQKPGQPPKLLIYDASTLAYGVSSRFSGSGSGTQFTLTISGVQCADAATYYCQQGWSSSNVDNVFGGGTKLEIK
notes: Rabbit mAb
binding result [1]: binds
binding result [2]: no binding

B5: anti-CHI3L1 monoclonal antibody C18 (antibody, V domains shown)
VH: KQLVEESGGDLVRPEGSLTLTCKGSGFDFSRNAMCWVRQAPGKGLEWIACIYVGSGGGTYYATWAKGRFTISKTSSTTVTLQMTSLTAADTATYFCAGSPYSGYGYFNLWGPGTLVTVSS
VL: DPMLTQTPASVSEPVGGTVTIKCQASQSISTALAWYQQKPGQPPKLLIYRASILASGVPSRFKGSGSGTEFTLTISDLECADAATYYCQSYYDSSAGNTFGGGTKVEIK
notes: Rabbit mAb
binding result [1]: binds
binding result [2]: no binding

B6: anti-CHI3L1 monoclonal antibody C17 (antibody, V domains shown)
VH: QSVKESGGDLVKPGASLTLTCTASGFSFSSSYWICWVRQAPGKGLEWIACIDAGSSESTYYASWAKGRFTISKTSSTTVTLQMTSLTAADTATYFCARDSRVVAGVGMYLNLWGPGTLVTVSS
VL: AIKMTQTPASVEVAVGGTVTIKCQASQSIGIYLAWYQQKPGQPPKLLIYDASDLASGVPSRFRGSGSGTQFTLTISGVECADAATYYCQQGDTIYNVDNTFGGGTKVVVE
notes: Rabbit mAb
binding result [1]: binds
binding result [2]: no binding

B7: anti-CHI3L1 monoclonal antibody C55 (antibody, V domains shown)
VH: QSVKESGGDLVKPGASLTLTCTASGFSFSSDYDIYWVRQAPGKGLEWIAWIDGGSSGEIYANWAKGRFTISKTSSTTVTLQMTSLTAADTAAYFCARCIWSHNYYDLWGPGTLVTVSS
VL: AIKMTQTPSSVSAAVGGTVTINCQASEDIENYLAWYQQKPGQPPKLLIYRASTLASGVSSRFKGSGSGTEFTLTISDLECADAATYWCQQGYSGSNVDNFFGGGTKVVVE
notes: Rabbit mAb from single B cells, expressed as full length IgG in HEK293; also called clone 55
Kd [3]: 1.22 nM
koff [3]: 0.000141 s⁻¹
kon [3]: 115000 M⁻¹ s⁻¹

B8: anti-CHI3L1 monoclonal antibody C30 (antibody, V domains shown)
VH: QEQLVESGGGLVTPGGTLTLTCTASGFDFSSYYYMCWVRQAPGKGLELIAAIDTGSGETYYASWANGRFTISKTSSTTVTLQMTSLTAADTATYFCARDPYFGTNLWGPGTLVTVSS
VL: DPMLTQTPSPVSAAVGGTVTITCQASQSVYNNNYLSWFQQKPGQPPKLLIYKASILASGVPSRFKGSGSGTQFTLTISDLQCDDAATYYCLGGYSSPSDDAFGGGTKVVVE
notes: Rabbit mAb
binding result [1]: binds

B9: anti-CHI3L1 monoclonal antibody C65 (antibody, V domains shown)
VH: QSVEESGGGLVQPEGSLTLTCTASGFSFSSSYYMCWVRQAPGKGLEWIACIFTGGVSTYYASWVNGRFTISKTSSTTVTLQMTSLTAADTATYFCARTYTAGFTGDNYFNLWGPGTLVTVSS
VL: AQVLTQTPASVEAAVGGTVTIKCQASQSISSYLAWYQQKPGQPPKLLIYRASTLASGVPSRFKGSGSGTEFTLTISDLECADAATYYCQSDYYSSSSNNGFVFGGGTEVVVK
notes: as for B2
Kd [3]: 6 nM
koff [3]: 0.000756 s⁻¹
kon [3]: 126000 M⁻¹ s⁻¹

B10: C22 (antibody, V domains shown)
VH: QLVEESGGGLVKPGAPLTLTCTLSGFSFSSGYYMCWVRQAPGKGLEWIACIYGAVSDRIYFASWAKGRFTMSRPSSTTVTLQMTSLTAADTATYFCARDSYSGSTYYRSYYFNLWGPGTLVTVSS
VL: DPVLTQTPASVSAAVGGTVTISCQSNENIYVDKYLSWYQQKPGQPPKGLIYSASTLASGVPSRFRGSGSGTQFTLTISDVQCDDAATYYCAGSFSSSDSCAFGGGTEVVVK
notes: also called anti-CHI3L1 monoclonal antibody C22
binding result [1]: binds
binding result [2]: no binding

B11: anti-CHI3L1 monoclonal antibody C57 (antibody, V domains shown)
VH: QSVEESGGGLVQPGGSLTLTCKASGFSFSSGYWMCWVRQAPGKGLEWIACIGASYGGTFYASWAKGRFTISKTSSTTVTLQMTSLTAADTATYFCTRDDGGLDNPNLWGPGTLVTVSS
VL: DPVLTQTPASVEAAVGGTVTIKCQASQSIGSILAWYQQKPGQPPHLLIYAAAKLASGVPSRFKGSGSGTQFTLTISGVECDDAATYYCQSYYYSVTTSYSNSFGGGTEVVVK
notes: as for B2
binding result [1]: no binding
Kd [3]: 4.09 nM
koff [3]: 0.000223 s⁻¹
kon [3]: 54500 M⁻¹ s⁻¹

B12: anti-CHI3L1 monoclonal antibody C21 (antibody, V domains shown)
VH: QSVKESGGGLVQPEGSLTLTCTASGFSFSSSYYMCWVRQAPGKGLEWIACIYNGDGSTYYASWAKGRFTISKTSSTTVTLQMTSLTAADTATYFCARDADYAGVVLNLWGPGTLVTVSS
VL: AQVLTQTPASVEAAVGGTVTIKCQASESIGNALAWYQQKPGQPPKLLIYVASYLASGVSSRFKGSRSGTEYTLTISDLECVDAATYYCQCTWYGNVYLAFGGGTEVVVK
notes: Rabbit mAb
binding result [1]: binds
binding result [2]: no binding

B13: anti-CHI3L1 monoclonal antibody C23 (antibody, V domains shown)
VH: QSVKESGGGLVQPGGSLTLSCKASGFDFSSYYMSWVRQAPGKGLEWIGIIYGGKGTTDYASWVNGRFTISSDNAQNTVDLQMNSLTAADTATYFCARDYVSSSGYYMDLWGPGTLVTVSS
VL: ALVMTQTPASVSAAVGGTVTIKCQASEDIYSLLAWYQQKPGQPPKLLIYDASDLASGVPSRFSGSGSGTEYTLTISDLECDDAATYYCQGGYYSGSPTDNSFGGGTKVVVE
notes: Rabbit mAb
binding result [1]: binds
binding result [2]: no binding

B14: anti-CHI3L1 monoclonal antibody C68 (antibody, V domains shown)
VH: QSVEESGGDLVKPGASLTLTCTASGFSFSGPYWISWVRQAPGRGLEWIASIGARSSGSTHYASWAKGRFTISKTASTTVTLQMTSLTAADTATYFCARSYPAYAGDGYALYYFNLWGPGTLVTVSS
VL: DVVMTQTPASVSAAVGGTVTIKCQASEDIYSLLAWYQQKPGQPPKFLIYDASDLASGVPSRFSGSGSGTEYTLTINDLKCDDAATYYCQGGYYSGDGTDIPFGGGTELEIL
notes: as for B2
binding result [1]: no binding
Kd [3]: 0.799 nM
koff [3]: 0.00011 s⁻¹
kon [3]: 138000 M⁻¹ s⁻¹
